From the Human Domainome abundance scans (Beltran et al. 2025)
± gives the uncertainty stated by the source.

Assay: abundance fitness (aPCA) (normalised: wild type 0, dead -1); higher = more abundant; growth selection in yeast, the domain comes from the species named
Details: Homo sapiens
“SAFB-like transcription modulator E59R, Q9NWH9” showed an abundance fitness of -0.532 ± 0.054. With “SAFB-like transcription modulator E59T, Q9NWH9” the abundance fitness was -0.323 ± 0.073. “SAFB-like transcription modulator E59V, Q9NWH9” showed an abundance fitness of -0.459 ± 0.052. With “SAFB-like transcription modulator E59W, Q9NWH9” the abundance fitness was -1.02 ± 0.089. Work on “SAFB-like transcription modulator E67A, Q9NWH9” yielded an abundance fitness of -0.197 ± 0.046. With “SAFB-like transcription modulator E67C, Q9NWH9” the abundance fitness was -0.252 ± 0.087. For “SAFB-like transcription modulator E67D, Q9NWH9”, the abundance fitness was -0.107 ± 0.086. In the case of “SAFB-like transcription modulator E67F, Q9NWH9”, the abundance fitness is reported as -0.041 ± 0.078. Substance “SAFB-like transcription modulator E67G, Q9NWH9” has an abundance fitness of -0.198 ± 0.049. “SAFB-like transcription modulator E67H, Q9NWH9” gave an abundance fitness of -0.107 ± 0.15. For “SAFB-like transcription modulator E67I, Q9NWH9”, the abundance fitness was 0.017 ± 0.08. With “SAFB-like transcription modulator E67K, Q9NWH9” the abundance fitness was -0.225 ± 0.082. Work on “SAFB-like transcription modulator E67L, Q9NWH9” yielded an abundance fitness of -0.134 ± 0.035. Substance “SAFB-like transcription modulator E67M, Q9NWH9” has an abundance fitness of -0.308 ± 0.092. In the case of “SAFB-like transcription modulator E67N, Q9NWH9”, the abundance fitness is reported as -0.002 ± 0.069. “SAFB-like transcription modulator E67P, Q9NWH9” showed an abundance fitness of -0.155 ± 0.089. With “SAFB-like transcription modulator E67Q, Q9NWH9” the abundance fitness was -0.35 ± 0.1. “SAFB-like transcription modulator E67S, Q9NWH9” showed an abundance fitness of -0.084 ± 0.04. With “SAFB-like transcription modulator E67T, Q9NWH9” the abundance fitness was -0.099 ± 0.049. “SAFB-like transcription modulator E67V, Q9NWH9” showed an abundance fitness of -0.042 ± 0.037. Work on “SAFB-like transcription modulator E67W, Q9NWH9” yielded an abundance fitness of -0.27 ± 0.037. In the case of “SAFB-like transcription modulator E67Y, Q9NWH9”, the abundance fitness is reported as -0.019 ± 0.11. In the case of “SAFB-like transcription modulator G19A, Q9NWH9”, the abundance fitness is reported as -0.101 ± 0.09. Work on “SAFB-like transcription modulator G19C, Q9NWH9” yielded an abundance fitness of -0.391 ± 0.19. Work on “SAFB-like transcription modulator G19D, Q9NWH9” yielded an abundance fitness of -0.027 ± 0.078. With “SAFB-like transcription modulator G19E, Q9NWH9” the abundance fitness was -0.014 ± 0.086. For “SAFB-like transcription modulator G19I, Q9NWH9”, the abundance fitness was 0.503 ± 0.23. Work on “SAFB-like transcription modulator G19R, Q9NWH9” yielded an abundance fitness of -0.757 ± 0.2. Work on “SAFB-like transcription modulator G19S, Q9NWH9” yielded an abundance fitness of -0.003 ± 0.064. Work on “SAFB-like transcription modulator G19T, Q9NWH9” yielded an abundance fitness of -0.406 ± 0.34. For “SAFB-like transcription modulator G19V, Q9NWH9”, the abundance fitness was 0.053 ± 0.072. For “SAFB-like transcription modulator G19W, Q9NWH9”, the abundance fitness was -0.72 ± 0.35. For “SAFB-like transcription modulator G19Y, Q9NWH9”, the abundance fitness was 0.212 ± 0.24. For “SAFB-like transcription modulator G43C, Q9NWH9”, the abundance fitness was -0.464 ± 0.19. Work on “SAFB-like transcription modulator G43D, Q9NWH9” yielded an abundance fitness of -0.712 ± 0.2. “SAFB-like transcription modulator G43V, Q9NWH9” showed an abundance fitness of -0.601 ± 0.26. In the case of “SAFB-like transcription modulator G60A, Q9NWH9”, the abundance fitness is reported as -0.317 ± 0.047. In the case of “SAFB-like transcription modulator G60C, Q9NWH9”, the abundance fitness is reported as -0.258 ± 0.036. “SAFB-like transcription modulator G60D, Q9NWH9” gave an abundance fitness of -0.171 ± 0.062. Substance “SAFB-like transcription modulator G60E, Q9NWH9” has an abundance fitness of -0.347 ± 0.05. “SAFB-like transcription modulator G60F, Q9NWH9” showed an abundance fitness of -0.584 ± 0.06.
